# Measured values published in a protein production outcome set (Wang et al. 2014).
# Experiment: label from the status in PepcDB records
row,Sequence,protein production
1,MHSPQISPPIAPSTPLLAGWRSAGKAPEAAIRGEAVSLQPLDAPRHGAALFRLFAGDDSHWEHLPYGPFEDEDAFITWLALTVAQSDTALYVVCAKDSDQALGFLGYRQMVQAHGAIEIGHVNFSPALRRTRLATEAVFLLLKTAFELGYRRCEWRCDSRNAASAAAARRFGFQFEGTLRQAMVVKRRNRDTHVFSMLDGEWDALK,not failed
2,MHSQFAPRLRQLRWYEIVLIATVAAALCIYLPIVVKRSAVQGFGDVQVFFRAAWAVWTGYPLYQVADHHGWTYHYPPTFALLMGPFAHPLDGFPKPDWALSLPLSVATWYVFSAAAMLAAVDLWARGLERALPPSLDQADWSAWWLLRLGPVAALLPFFGDGLGRGQPSAVVLLTMVAFLVLYLRGRIYLAACALALGFTIKLFPLALLIFPVLRRDLRTVLATFGFSAVFLFVVPMLCLGPSEVVKLYGAMWTEHLSGIFTGVPNPKIADEITFTSYDMLSIGAMLARIAAGGLPETDTLPRFATICQLMFDAVVIGALLWLGHGRFWRLRGPQPPLGPSLLIGGALLCAALPVMLSVSQPNYVAFAAPLVALVQFEVWRRRGRVCVVPALIAWSGLMWLGMIATEGGAWQPLRVVGLVTPALIALLLWGFASLRRAAAPP,failed
3,MHSQIWVVSTLLISIVLIVLTIVKFKFHPFLALLLASFFVGTMMGMGPLDMVNAIESGIGGTLGFLAAVIGLGTILGKMMEVSGAAERIGLTLQRCRWLSVDVIMVLVGLICGITLFVEVGVVLLIPLAFSIAKKTNTSLLKLAIPLCTALMAVHCVVPPHPAALYVANKLGADIGSVIVYGLLVGLMASLIGGPLFLKFLGQRLPFKPVPTEFADLKVRDEKTLPSLGATLFTILLPIALMLVKTIAELNMARESGLYILVEFIGNPITAMFIAVFVAYYVLGIRQHMSMGTMLTHTENGFGSIANILLIIGAGGAFNAILKSSSLADTLAVILSNMHMHPILLAWLVALILHAAVGSATVAMMGATAIVAPMLPLYPDISPEIIAIAIGSGAIGCTIVTDSLFWLVKQYCGATLNETFKYYTTATFIASVVALAGTFLLSFII,failed
4,MHSREYPFMLASMMFDFACLQISSLWERLLGAIGDAAGNALGRVVEAIRTLFEGDPETRRKVSFSVAIIALSAKMAKADGVVNDAEVRAFRQIFDFPDEEAKNVARLYNLARQDVAGYEAYAERLAGLCGSGHANCEMLESVIDGLFHIAKADGLIHERELAFLGRIAEIFRITEDHFETIMARHVHMDGRDPYRVLGVSPSDDFLDIRKRYRSLVAEHHPDKLIARGVPMELHAAANERMAALNAAYAAIEKERRVA,failed
5,MHTLNLGILAHVDAGKTSLTERLLHTVGVIDEIGSVDEGNTQTDSLALERQRGITIKSAVVSFAINDTTVNLIDTPGHPDFIAEVERVLSVLDGAVLVVSAVEGVQAQTRVLLRTLQRLRIPTLLFVNKIDRGGAGEERVLRAIAARLTPAIVPMGRAAGPGSRDARFIPYEAHDPGFGARLLDVLTEHDEELLAAYVKDTVSYGRLRTALVEQTRQALVHPVFFGSATTGAGVPELIAGIKELLPAAEGDPDGPVSGTVFKVERGPAGEKIAYARLFSGTVRTRDRLLFRDGEEGKVTAISVFDQGSAVREASVAAGRIGKLWGLAEIRIGDTFGEVPKAAEPSRHFSPPTLETVVVPGGRSDGGALHLALTQLAEQDPLINMRQDEIRREISLSLYGEVQKEVIQATLADAFGLDVTFRETTPICVERPVGTGAAVEFNGKGPHPFLATVGLRVEAAPVGSGVEFRLEVELGAMPYAFFKAVEDTVRETLGQGIHGWRVTDCTVTMTHSGYSPRQSHAHQGFDKSMSSTGADFRGLTPLVLMDALRQAGTRVHEPLHRFGLEAPADTLGAVLPVLAGLRAVVRTTRMREAVCVLEGLVPAAHVHELGQVLPGLTRGEGELETAFDHYAPVAGGTVPNRPRTDHNPLDRKEYLLNVTRRVGT,failed
6,MHTLVFLSTRQVLQCQPAACQALPLLPRELFPLLFKVAFMDKKTVVLRELVHTWPFPLLSFQQLLQECAHCSRALLQERPSTESMQAVILGLTARLHTSEPGASTQPLCRKHALRVLDMTGLLDDGVEQDPGTMSMWDCTAAVARTCIAQQQGGAAEPGPAPIPVEVRVDLRVNRASYAFLREALRSSVGSPLRLCCRDLRAEDLPMRNTVALLQLLDAGCLRRVDLRFNNLGLRGLSVIIPHVARFQHLASLRLHYVHGDSRQPSVDGEDNFRYFLAQMGRFTCLRELSMGSSLLSGRLDQLLSTLQSPLESLELAFCALLPEDLRFLARSPHAAHLKKLDLSGNDLSGSQLAPFQGLLQASAATLLHLELTECQLADTQLLATLPILTQCASLRYLGLYGNPLSMAGLKELLRDSVAQAELRTVVHPFPVDCYEGLPWPPPASVLLEASINEEKFARVEAELHQLLLASGRAHVLWTTDIYGRLAADYFSL,failed
7,MHTTFTFHLYPWILKYLKGGEGNFKYLHQENPKQEITDSSDKMSFWKDRMLIIPAVDIKDGKCVQLVQGKPGTEQVVLDDPAGVAGRWESLGAETIHVVDLDGALGLEKNTGILKEITERVSVPLQIGGGIRSREYAGKLLDMGFERVILGTMAIENPAIVEELAGEYGSERIMVSLDSRDSRVVIRGWTEKVPFTAEEMARKFQERGAGSILFTNVDFEGLLSGFDLKPVSELVEAVEIPVIYSGGVSSLNDLRMLQGTGVMGVVIGSAIYRGLIDLTEALKYQDLK,failed
8,MHVLTLDLAPVTPKDAPLLHRVFHLSPSYFALIGMELPTLEDVVRDLQTLEVDPRRRAFLLFLGQEPVGYLDAKLGYPEAEDATLSLLLIREDHQGRGLGRQALERFAAGLDGVRRLYAVVYGHNPKAKAFFQAQGFRYVK,failed
9,MHYAFSRIRLRSFFGWMIIGVFLIMIPLDLTNVSENTMEVISQITVFFVFPLLWLYVKTNKNNVVFNSFFDKPGRLSWGLIVLATIMGMIFSVGISQIQFYILAHTLPNFLVTMLEDGNVINTSNVYMTIFTFISACVLAPIMEEVIFRGFFLQRMAYKWGIKKAVIISSIIFGLGHFDVIGAFMFGVVMCLLYIKTKNIWTNIAVHALNNLIATSMQFFGGEESGTISITELQAQSNLWIGIGLTVVGLLWLIPYVWKQWRTVKEVGVPPVRFINEQKVVSSSQENEVYSQVILTDRLMAIELPDEAVNKLRLEENDYVTVSVEEDKIVIKKAHNR,failed
10,MHYPVLVNPRKPSLSRMPMKKPKRASAAKAKKGRKISASRSKPATKRPAKPPRRGASLDGTKDSAKIIRGLRSKLKAAERRVAELEAAADTDFLLEIPNRRGFERELTRAIAYMKRYRATGALIVLDVDRLKPINDSFGHAAGDEVLKAIVGALTRQVRASDVVGRLGGDEFALLLWNLNETDAKAKAAAFEQTIDELSFVFRSQNVTAGASAGVALLGAHSDAGRALEEADAAMYVRKARRRHEPRIRLVSN,failed
11,MIAKEFETFLLGQEETFLTPAKNLAVLIDTHNADHATLLLSQMTYTRVPVVTDEKQFVGTIGLRDIMAYQMEHDLSQEIMADTDIVHMTKTDVAVVSPDFTITEVLHKLVDESFLPVVDAEGIFQGIITRKSILKAVNALLHDFSKEYEIRCQ,not failed
12,MIALLPAYLLWVVLSLLEYNRQAREQIQDDIFREREYASVALRGISDAVVSIDTEQVIQYLNPAAEALLGLPAAQLLQRRLKQVAPLHYEFSRQPVQDPIEQAIATQQVVHLAQNCYLKRHNGEKLLVEGAVAPLLGRNGQLIGSVLTFRDTAPIRRRMLAALEASESRLRQHELELARVTRINTMGEMASGIAHEINQPLSAIMSYCQAGLSLLEDDELDMAMLRRALTSSVSQADRAGRIIHRLREFVTQKNQQLAPVQLNQAVHNALSLLDYELHDHDIHIEQNFAPELPLVYADTIQLEQVVLNLARNAVEAMEPTRPWGRLSITTRRQGERVQLIISDNGCGIPPDKLDRIFDPFFSTKPNGMGLGLAICQTAVEAFGGKLIAGNKPGSGAEFIIDLPCAPRDMAVPSGVEA,failed
13,MIAMDIREIGLRLVGEAIKAADPYRAVLNAVKVSDDKIIVQGKEFEIKGKVYVIALGKAACEMARAIEDILDVEDGVAVTKYGYGKELKRIKVIEAGHPIPDEKSILGAKEALSILNRARENDIVFILISGGGSALFELPEEGISLEDLKLTTDLLLKSGAKIHEINTVRKHISKVKGGKLAKMIKGTGIVLIISDVVGDNLEAIASGPTVKDPTTFEDAKRILELYDIWEKVPESVRLHIERGLRGEVEETLKEDLPNVHNFLIASNSISCEAIAREAQRLGFKAYIMTTTLEGEAKDAGLFIGSIVQEIAERGRPFEPPVVLVFGGETTVTIEGKGGKGGPNQEIALSATRKISDLEALIVAFDTDGTDGPTDAAGGIVDGTTYKKLREKGIDVEKVLKEHNSYEALKKVGGLLFTGPTGTNVNSIVIAIVTSKRGRT,not failed
14,MIASVASTTKDRLEIVKAFRNKEITILIATSILERGVTFPNVDVFVINSEHPNFTKSALIQMAGRVGRSPERPTGLVSFFHYGKSKAMCQAVREIKKMNQLGCFSLEHHHHHH,failed
15,MIAVISMSGHVWSQQVPLWSIIIRTIHLIGLTLWLGSLVYLICYAIKVKINQLTSVRRMLLKVNIIAVFMLVFTGILMAIDETNTLTLWNNVSAWSIYLVIKIAGIITMMLLGFYQTMRALRQRQQVHRFALMTELLIGMILIFAGIMMSK,failed
16,MIDDMAVPLTFTDAAANKVKSLISEEENTDLKLRVYITGGGCSGFQYGFTFDEKVNDGDLTIEKSGVQLVIDPMSLQYLIGGTVDYTEGLEGSRFTVNNPNATSTCGCGSSFSI,not failed
17,MIDEPTGLYNRLRLQEDVSLRLQRDGALTVIAADLLPLALLNTIIRTLGYPFSNDLMLEARDRIRAELPDFTLYKISPTRFGLLLPRQQQEETESVCLRLLRAFESPVVCRGIPIKANVGLGVLPLADDTLDGDQDWLRLVVSAADDARDRGVGWARYNPPLDQAQQRLEHHHHHH,not failed
18,MIDGQIRLGHSMPWGMVGGGQGSQIGYIHRSAALRDGSFQLVAGAFDLDPERGRQFGQRLGVSAQRCYPDYRAMFEAEARRPDGIRAVSIATPNNTHFDICRAALHAGLHVVCEKPLCFTTAEAEALQRLAGEQRKIVGVTYGYAGHQLIEHAREMIVRGDLGEIRIVQMQFSHGFHSEGVEAANPAARWRMDPTFAGPSYVLGDIGTHPLYLSEVMLPGLKIARLLCSRQSFVKTRAPLEDNAFTIMEYQGGAIGYAWSCAVNAGSMHGQKIRVIGSKASLEWWDEHPNQLRYEVQGQPAQVLDRGMGYLHPAALHDDRIGAGHPEGLFEAWSNLYYRFALAMDATDRDDAAALRGIRYPDIHAGVEGVRWVENCVRSADAGGVWVDYR,failed
19,MIDVIQSLGIDLHFRQEIEQTLHMIYKEGLQFNGDLHEIALRFRLLRQEGHYVQEIIFKNILDKKGGFKDVVKNDVKGLTELFEASELRVEGEETLDGAREFTYSRLNELCSGRESHQKQEIMKSLAQPRHKTVRGLTSKRFTSMIKIAGQEDPEWLQSLLRVAEIDSIRLKSLTQGEMSQTFKWWTELGLEKDVEKARSQPLKWHTWSMKILQDPTLTEQRLDLTKPISLVYVIDDIFDVYGELEELTIFTRVVERWDHKGLKTLPKYMRVCFEALDMITTEISMKIYKSHGWNPTYALRQSWASLCKAFLVEAKWFNSGYLPTTEEYMKNGVVSSGVHLVMLHAYILLGEELTKEKVELIESNPGIVSSAATILRLWDDLGSAKDENQDGTDGSYVECYLNEYKGSTVDEARTHVAQKISRAWKRLNRECLNPCPFSRSFSKACLNIARTVPLMYSYDDDQRLPDEYLKSLM,failed
20,MIEEYLLRALLASLMVSTLLGLLSPLINVKGVAFLTHATFHALLFGAVLGMILGLIMGDLSLIFWISLLIAIIVVIGIAEMEIRGYSSDTAVGTMAGIIAGLTVLGFGILYKVMASRPYFALSESIVSYLTGEIFLITFDDLTLLVIGGFLVFTIMVIFYRDFLYLSFDPEGLESHGGNVRLYLMLLYFLVGAVGGLIVKTVGLITLQVLAVLPGAIALTISRGIREFVGISLGLTLAIQVSSTFLGYYFNIPPSGLATIFLGTIYGVLALRRKII,failed
